For 20 sequences, protein production results are on record in a protein production outcome set (Wang et al. 2014).

A short description of the data set: label from the status in PepcDB records.
With “MALRSLVLFAALALVGCSSSPTADLVLTNGTVATLDDDHEQVEALAAADDTLLAVGSADAIDAYVGGDTRVIDLQGRLAVPGFIEGHGHYMGMGQAQMQLDLLGTSSWGRVVAKVDSSADETASGAWVEGRGWHQEKWTSTPERMVRGFPTNARLNEAAPDTPVYLTHASGHAAIANDAALEAAGIGPNTPDPEGGTIVRDAQERVTGVLLETAAGLVQEALDASRSGMSAADRRARRERQVRLAAEEALANGVTSFQDQGASFETIRLYREMAERGALDIRMYAMVAQGEVTPETQERLAEIRTVGAADQHLTVRAIGEVTVDGALGSRSAWMLEPYDDAPNDTGINVTPMERVREIAEIGLDEDYQIAVHAIGDRANRETLDLYASLFEAADGRGAERRWRVEHAQHLHPDDISRFADLGVMASMQAIHACSDAPYNYQRLGAQRVDQGAYLWNTLWADGAVVGNGTDVPVEKIDPLASLHCTATRQVPGTDTTFTPDETLTRRRALQSYTINNARMAFEEDVKGTLTPGKLADVTVLSENILTGPPERLREATVDYTIVGGEVAYANE”, the protein production entry is given as “failed”. As for “MALSADIVGMHYRYPDHYEVEREKIREYAVAVQNDDAWYFEEDGAAELGYKGLLAPLTFICVFGYKAQAAFFKHANIATAEAQIVQVDQVLKFEKPIVAGDKLYCDVYVDSVREAHGTQIIVTKNIVTNEEGDLVQETYTTLAGRAGLEHHHHHH”, the entry is “not failed”; as for “MALTEAWLIEKANRKLNAGGMYKITSDKTRNVIKKMAKEGIYLCVAQGYRSTAEQNALYAQGRTKPGAIVTNAKGGQSNHNYGVAVDLCLYTNDGKDVIWESTTSRWKKVVAAMKAEGFKWGGDWKSFKDYPHFELCDAVSGEKIPAATQNTNTNSNRYEGKVIDSAPLLPKMDFKSSPFRMYKVGTEFLVYDHNQYWYKTYINDKLYYMYKSFCDVVAKKDAKGRIKVRIKSAKDLRIPVWNNTKLNSGKIKWYAPNTKLAWYNNGKGYLELWYPSDGWYYTANYFLK”, “failed”; as for “MAMNLRKNQAPLYIKVHEIDNTAIIVNDGGLPKGTVFSCGLVLEEDVPQGHKVALTDLNQGDEIVRYGEVIGFADETIKRGSWIREALVRMPAP”, “failed”. With “MAMPEIDALLGLSFCLYFFDNKQHKLPHIHVKYGSYELIIAIETGECLEGYLPNKQRKRAENHILEHREQLMVMWNKAVNGENPGKLGDLCLEHHHHHH” the entry was “failed”; with “MANENVAFENKRQVYHYEPPIQKEEAIPKQYFAGFWIRFLAYLVDLVVIAALKGIIINPIFRVSGMGMDDSFFTFYWGMTTIIFLAYFILLTKFFGQTLGKMLFGLRVVKLDGGKLTWLTVLFREGAMRFVLKTIWPLYVVCAFTPNKQGIADFFESTSVVHTGYLELDEKWVNGAKK”, “failed”; with “MANIVFIATSLDGYIADKRGKLDWLHSVPNPNNVDTGFVALMERVDGLVMGRNTLDMVLSFDCDWPYSKPVFVLSNTMTEVPQGYEDKVFLVKGKLVDIIADLNAKGFNELYIDGGVTIQNFLKEDLIDEMVITRFPILLGGGVPLFGELESSLSFNVIKSEVVLDSLTQTTYHRKRA”, “not failed”.

Consider “MANKKGRRRSFGSCRQLASGRWQVRYRDPQTGLLRPAEKTYETKTDAQVALTHIEADITRGQWADPDAGDVNFADYATAWLRDRKLADRTRERNESVMRLHVVPVFGAGSIADVTTARVRSWRGKLLAAGVGEPTVVKAYQLLRALMNTAVDDELIRRNPCRIKGADSYDVPERPVLSVAEVFGVAYAIAPRYRLLVLLAAFTTLRFGELAALRRKDIDLNGRLVVVRRAQAELQNGRLFDKAPKSAAGLRTVSFPAELVDEISHHLKHYAADGQEGHLFVGPQGGQLRRSNFRDDWIKARKAAGVSPKLHFHDLRHTGNTLASTAGASTRELMTRMGHSSSRAALIYQHMTSDRDRTIADRLGAMIRNGEGDLTAAGD”, for which the protein production result is listed as “failed”.

On to “MANKNPLQKPFLFIILSINLIFLQAETTTQISTKKTYVIHMDKSAMPLPYTNHLQWYSSKINSVTQHKSQEEEGNNNRILYTYQTAFHGLAAQLTQEEAERLEEEDGVVAVIPETRYELHTTRSPTFLGLERQESERVWAERVTDHDVVVGVLDTGIWPESESFNDTGMSPVPATWRGACETGKRFLKRNCNRKIVGARVFYRGYEAATGKIDEELEYKSPRDRDGHGTHTAATVAGSPVKGANLFGFAYGTARGMAQKARVAAYKVCWVGGCFSSDILSAVDQAVADGVQVLSISLGGGVSTYSRDSLSIATFGAMEMGVFVSCSAGNGGPDPISLTNVSPWITTVGASTMDRDFPATVKIGTMRTFKGVSLYKGRTVLPKNKQYPLVYLGRNASSPDPTSFCLDGALDRRHVAGKIVICDRGVTPRVQKGQVVKRAGGIGMVLTNTATNGEELVADSHMLPAVAVGEKEGKLIKQYAMTSKKATASLEILGTRIGIKPSPVVAAFSSRGPNFLSLEILKPDLLAPGVNILAAWTGDMAPSSLSSDPRRVKFNILSGTSMSCPHVSGVAALIKSRHPDWSPAAIKSALMTTAYVHDNMFKPLTDASGAAPSSPYDHGAGHIDPLRATDPGLVYDIGPQEYFEFLCTQDLSPSQLKVFTKHSNRTCKHTLAKNPGNLNYPAISALFPENTHVKAMTLRRTVTNVGPHISSYKVSVSPFKGASVTVQPKTLNFTSKHQKLSYTVTFRTRFRMKRPEFGGLVWKSTTHKVRSPVIITWLPPL”, for which the protein production result was “failed”.

Turning to “MANPLYHKHIISINDLSRDELELVLRTAASLKKTPQPELLKHKVIASCFFEASTRTRLSFETSIHRLGASVVGFSDSSNTSLGKKGETLADTMSVISTYVDAIVMRHPQEGASRLAAQFSGNVPIVNAGDGANQHPTQTLLDLFTIQETQGRLDNINIAMVGDLKYGRTVHSLTQALAKFNGNHFFFIAPDALAMPAYILQMLEEKEIEYSLHESLEEVVPELDILYMTRVQKERLDPSEYANVKAQFILRSSDLTGARDNLKVLHPLPRIDEITTDVDKTPYAYYFQQAGNGIFARQALLALVLNAELAL”, the protein production result is listed as “not failed”. With “MANPNEAYRHYMKKLSYETDIADLSIDIKKGYEGIIVVDVRDAEAYKECHIPTAISIPGNKINEDTTKRLSKEKVIITYCWGPACNGATKAAAKFAQLGFRVKELIGGIEYWRKENGEVEGTLGAKADLFWNMKKESLEHHHHHH” the entry was “not failed”; with “MANSETSLQARLWKTLSQSPDVRLWRNNVGTCKAADGRFVRFGLCPGSSDLIGLTRVTITPDMVGQTIALFTAIEVKTPTGRVTPEQQSFIDFVQRSGGRAGVARSMQDANKIISGEGHVLEHHHHHH”, “failed”.

On to “MANSITADEIREQFSQAMSAMYQQEVPQYGTLLELVADVNLAVLENNPQLHEKMVNADELARLNVERHGAIRVGTAQELATLRRMFAIMGMYPVSYYDLSQAGVPVHSTAFRPIDDASLARNPFRVFTSLLRLELIENEILRQKAAEILRQRDIFTPRCRQLLEEYEQQGGFNETQAQEFVQEALETFRWHQSATVDEETYRALHNEHRLIADVVCFPGCHINHLTPRTLDIDRVQSMMPECGIEPKILIEGPPRREVPILLRQTSFKALEETVLFAGQKQGTHTARFGEIEQRGVALTPKGRQLYDDLLRNAGTGQDNLTHQMHLQETFRTFPDSEFLMRQQGLAWFRYRLTPSGEAHRQAIHPGDDPQPLIERGWVVAQPITYEDFLPVSAAGIFQSNLGNETQTRSHGNASREAFEQALGCPVLDEFQLYQEAEERSKRRCGLLLEHHHHHH”, for which the protein production result is recorded as “not failed”. Turning to “MANVKLLLPYILKWEGGFVHDPADAGGATNKGVTIATWKRVGYDKDGDGDIDVEDLKLLTDDDVLNRVLKPFYWDRWKADLIESQKVANILVDWVWGSGKYGIVIPQRILGVQADGIVGNKTLQAVNSADPDELFESIFDARREFLEDITARSIKKYEDSIGRKATERELLRHTNKRFLRGWLNRLEDIRKL”, the protein production entry is on record as “not failed”.

On to “MANYEFSQVSGDRPGCRLSRKAQIGLGVGLLVLIALVVGIVVILLRPRSLLVWTGEPTTKHFSDIFLGRCLIYTQILRPEMRDQNCQEILSTFKGAFVSKNPCDITREDYAPLVKLVTQTIPCDKTLFWSKSKHLAHQYTWIQGKMFTLEDTLLGYIADDLRWCGDPSTSDMNYVSCPHWSENCPNNPITMFWKVISQKFAEDACGVVQVMLDGSLREPFYKDSTFGSVEVFSLDPNKVHKLQAWVMHDIEGASSNACSSSSLNELKMIVQKRNMIFACVDNYRPARFLQCVKNPEHPSCRLNT”, for which the protein production entry is “not failed”. With “MAPAEPACRCAAAPCSSMIGIDRGSAARLILFRKTFYNIEHTFGRLIVASDLRGLAKYVEPGIRLAVPVDYAGVSMAMTRPIIERKAGNLHLICVPTGGLQVDQLIGSGLVRTVETSAVTLGEAGGAPRFNAAVKDGSIKLMDATCPAIHAGLMAAQKGSPFMPMRGLIGSDILRHRKDWRVIDNPLSDGGDPVVLIPAIKPDVTIFHAPMADRFGNVWIGRRRELAAMAYASATTLVTVERIVEESLLANEITAAGVLPAIYVTEVALAPKGAWPYGLWGEYQTDTQELVRYARAARTAEGFADYMATTQMEPA” the entry was “failed”.

In the case of “MAPDASTALAAREKVQQILNAACTGNLEFLKNVAKQLDEGKDLTKTVESIKDANKRGALHFAAREGQTEICRYLLEELKLNADAKDETGDTPLVHAARQGQIETVKYLLEQGADPNIASELGATALHHAAGTGEIELLKELLSRGVPVDSESESGTPLIWAAGHDQKNAVEVLLEHNANPNAETEDNITPLLSAVAAGSLSCLELLVKAGAKANVFAGGATPLHIAADIGNLELINCLLKAGADPNQKDEEGNRPLEVAAARDNRKVVEILFPLTTKPETVSDWTVDGILAHMESNKEQEENSNKAKSQETGIKKDLPVVSPEAKAKAAEAKARGQDAFHRKDFQMAIDAYTQAIDFDPTDHTLFSNRSLCWLRLGQAEHALSDAKACRELNPDWPKGCFREGAALRLLQRFDEAANAFYEGVLLSPESKELIDAFREAVDAGRKFHGKGEVKAKS”, the protein production result was “failed”.

As for “MAPRYDTLFYDGSCPLCAREIRTLRRLQTGNLIFADIHEQNPSNQQLPSREQLLRRLHLMSWNGEWVTGLHANVRAWSHTRFGWLFKPLLWPVIHPIASRIYETWADKRYGRKYACAMGHENSCPPGT”, the protein production entry is on record as “failed”. As for “MAPSCLKMAHMRLLLTSFGHDHIRDFVRGTVAYIPDATRLFADSPEAAPFMETERNMLREHGLSIRELPISTSTPEEVDRVLGEVDGVYVAGGETFDLMWLLRSTGNDEVLIKHVRAGLPYIGTSAGAVIAGPSIEPISFLDSPDVAPNLSDYSGLGLCEHVVVPHAGGTIPQFPIDVFAETVRTYGAEFPLVLLKDGQALLIDDHGVHLILEHHHHHH”, the entry is “not failed”; as for “MAPTIRLPFRRTLALLASATILAQTGMSGIAFAQTSPETAVPGVAAPVPAAPTPPASTPQQTPPVQTVVPTNGPASVADLAEGLLDAVVNISTSQNVKDDEGVGPAPRAPDGSPFQEFFNDFFNKKQGNKGPNHNVSSLGSGFVIDPAGYIVTNNHVIEGADDIEVNFANGSKLKAKLIGTDTKTDLSVLKVEPKTPLKSVKFGDSSEMRIGDWVMAIGNPFGFGGSVTVGIISGRGRNINAGPYDNFIQTDAAINKGNSGGPLFNMKGEVIGINTAIISPSGGSIGIGFSVPSELASGVVEQLRQYGETRRGWLGVRIQPVTDDIADSLGLDTAKGALVAGVIKGGPVDDGSIKAGDVILKFDGKTVNEMRDLPRVVAESTVGKEVDVVVLRDGKEQTVKVKLGRLEDSDQAASGDASPDGSQDGVITPDPDENDDMDQPDTGDQVAPAPGAPAPDQHQQGQVSPDAATPKNVLGLSLSLLSPETRKAFGIAESVDGVVVTEVEPGSASAEKGLKPGDVIVEVAQEFMKSPDAVAAKVKSLKQEGRRNAQLMIASANGDLRFVAVPME”, “failed”.
